Results: the supplement of paper PMC9112550, “Optimization of the antimicrobial peptide Bac7 by deep mutational scanning” (BMC Biology, 2022)

test system: Escherichia coli TOP10; test: shrunken log2 fold change of peptide-encoding DNA abundance (4.5 h post-induction vs induction); higher = less antimicrobial activity (less host growth inhibition); settings: time post-induction: 4.5 h; library: site-saturation at positions 5, 18, 19, 20
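Also: peptides expressed intracellularly from a pBAD plasmid library in pooled LB shake-flask culture, induced with 0.3% L-arabinose, DNA abundance read by NGS, three biological replicates, DESeq2 with apeglm shrinkage.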

Sequence	shrunken log2 fold change
RRIRRRPPRLPRPRPRPDKYPRP	-0.259
RRIRRRPPRLPRPRPRPRPLPRP	0.559
RRIRTRPPRLPRPRPRPWVRPRP	0.0999
RRIRGRPPRLPRPRPRPMPIPRP	0.0958
RRIRMRPPRLPRPRPRPEGIPRP	2.03
RRIRSRPPRLPRPRPRPQFLPRP	-0.394
RRIRDRPPRLPRPRPRPNTYPRP	-0.127
RRIRLRPPRLPRPRPRPNTIPRP	-0.796
RRIRGRPPRLPRPRPRPSPLPRP	0.539
RRIRTRPPRLPRPRPRPFMVPRP	-0.291
RRIRMRPPRLPRPRPRPMYQPRP	-0.0563
RRIRGRPPRLPRPRPRPESFPRP	0.0921
RRIRARPPRLPRPRPRPVMCPRP	0.0832
RRIRIRPPRLPRPRPRPREMPRP	0.00525
RRIRIRPPRLPRPRPRPGIRPRP	-0.0416
RRIRNRPPRLPRPRPRPLKIPRP	-0.233
RRIRGRPPRLPRPRPRPTSSPRP	0.425
RRIRKRPPRLPRPRPRPETEPRP	0.0991
RRIRCRPPRLPRPRPRPSYGPRP	-0.627
RRIRQRPPRLPRPRPRPPIMPRP	-0.344
RRIRFRPPRLPRPRPRPVHNPRP	-0.104
RRIRYRPPRLPRPRPRPDNDPRP	-0.17
RRIRCRPPRLPRPRPRPNPGPRP	-0.0632
RRIRGRPPRLPRPRPRPQNCPRP	0.0394
RRIRHRPPRLPRPRPRPCQPPRP	-0.0284

Sequence	shrunken log2 fold change
RRIRIRPPRLPRPRPRPGHHPRP	-0.309
RRIRNRPPRLPRPRPRPFMNPRP	-0.195
RRIRPRPPRLPRPRPRPGKQPRP	-0.0793
RRIRNRPPRLPRPRPRPLPVPRP	0.437
RRIRWRPPRLPRPRPRPSGHPRP	-0.195
RRIRERPPRLPRPRPRPIIMPRP	-0.119
RRIRWRPPRLPRPRPRPVWQPRP	0.301
RRIRIRPPRLPRPRPRPRVFPRP	0.0961
RRIRLRPPRLPRPRPRPEKLPRP	-0.00411
RRIRWRPPRLPRPRPRPHMTPRP	0.118
RRIRQRPPRLPRPRPRPKCLPRP	0.0772
RRIRDRPPRLPRPRPRPRAGPRP	0.741
RRIRERPPRLPRPRPRPCARPRP	0.0326
RRIRGRPPRLPRPRPRPVGPPRP	0.762
RRIRPRPPRLPRPRPRPKQCPRP	0.147
RRIRFRPPRLPRPRPRPTLFPRP	0.243
RRIRVRPPRLPRPRPRPAKEPRP	0.226
RRIRFRPPRLPRPRPRPTVRPRP	0.0843
RRIRMRPPRLPRPRPRPSMPPRP	-0.201
RRIRTRPPRLPRPRPRPRTKPRP	0.74
RRIRNRPPRLPRPRPRPSNKPRP	-0.259
RRIRPRPPRLPRPRPRPYGDPRP	-0.156
RRIRCRPPRLPRPRPRPPSRPRP	0.558
RRIRDRPPRLPRPRPRPHAGPRP	0.0575
RRIRVRPPRLPRPRPRPAWEPRP	0.162

Sequence	shrunken log2 fold change
RRIRDRPPRLPRPRPRPRYLPRP	-0.171
RRIRKRPPRLPRPRPRPVGQPRP	0.0743
RRIRIRPPRLPRPRPRPSKIPRP	-0.441
RRIRQRPPRLPRPRPRPVHVPRP	-0.0167
RRIRERPPRLPRPRPRPTPLPRP	0.0281
RRIRRRPPRLPRPRPRPSRVPRP	0.553
RRIRERPPRLPRPRPRPCASPRP	-0.172
RRIRSRPPRLPRPRPRPYTQPRP	-0.184
RRIRMRPPRLPRPRPRPAAAPRP	2.93
RRIRMRPPRLPRPRPRPQADPRP	0.639
RRIRGRPPRLPRPRPRPVMCPRP	0.522
RRIRHRPPRLPRPRPRPVACPRP	0.00664
RRIRRRPPRLPRPRPRPGQPPRP	0.262
RRIRSRPPRLPRPRPRPVANPRP	0.152
RRIRNRPPRLPRPRPRPNEGPRP	0.000589
RRIRNRPPRLPRPRPRPKNRPRP	0.0314
RRIRYRPPRLPRPRPRPWRFPRP	-0.00218
RRIRKRPPRLPRPRPRPSRKPRP	0.0758
RRIRARPPRLPRPRPRPRWLPRP	0.68
RRIRRRPPRLPRPRPRPQHAPRP	0.314
RRIRIRPPRLPRPRPRPGTAPRP	-0.0164
RRIRFRPPRLPRPRPRPTAWPRP	0.618
RRIRVRPPRLPRPRPRPQYFPRP	-0.19
RRIRRRPPRLPRPRPRPCPFPRP	0.0522
RRIRSRPPRLPRPRPRPMPRPRP	0.346
